Results on two molecules are retold here after US20240124575A1 (SIMCERE ZAIMING PHARMACEUTICAL, published 2024).

In one assay the target is T1, human CD33-V-his (human, UniProt P20138 18-144).
T1 construct: expressed in HEK293E; also called hCD33-V-his; human CD33 protein V-domain; not shown: His tag
As to the kind of experiment: ELISA on coated human CD33-V-his.

Assay [1] concerns the target T2, human CD33 on CHO-K1 cells (CHO-K1-human CD33) (human, UniProt P20138 18-364).
T2 construct: whole, on cells; stably transfected CHO-K1 clones; also called CHO-K1-hCD33-B8; CHO-K1-human CD33 B8
The experiment in a line: FACS, CHO-K1-human CD33 cells. The method, then:
The desired cells were expanded to a logarithmic growth phase in a T-75 cell culture flask. For adherent cells CHO-K1, the culture medium was removed by pipetting, and the cells were washed twice with a PBS buffer, digested with trypsin, and washed twice with a PBS buffer again after the digestion was stopped. For suspension cells U937, the medium supernatant was discarded by direct centrifugation, and the cell pellet was washed twice with PBS, and then incubated with a buffer containing human Fc Block (purchased from BD, Cat. No. 564220) for 15 min. After the cells obtained in the last step were subjected to cell counting, the cell pellet was resuspended to 2×10⁶ cells/mL with a blocking solution [PBS+2% (w/w) BSA] and added to a 96-well FACS reaction plate at 50 μL/well. The VHH-Fc antibody (a sample to be tested) was added at 50 μL/well, and the plate was incubated on ice for 2 h. […] After the plate was centrifuged and washed 5 times with a PBS buffer, the results were assayed and analyzed by FACS (FACS Canto™, purchased from BD Biosciences), so as to obtain the mean fluorescence intensity (MFI) of cells. Then, analysis was performed by software (GraphPad Prism8), data were fitted, and EC50 values were calculated.

The target of assay [2] is T3, human CD33-His (extracellular domain Asp 18-His 259) (human, UniProt P20138 18-259).
T3 construct: range 18-259; bought protein; also called hCD33-his; human CD33 protein; not shown: His tag
T3 sequence (P20138 18-259 limits assumed): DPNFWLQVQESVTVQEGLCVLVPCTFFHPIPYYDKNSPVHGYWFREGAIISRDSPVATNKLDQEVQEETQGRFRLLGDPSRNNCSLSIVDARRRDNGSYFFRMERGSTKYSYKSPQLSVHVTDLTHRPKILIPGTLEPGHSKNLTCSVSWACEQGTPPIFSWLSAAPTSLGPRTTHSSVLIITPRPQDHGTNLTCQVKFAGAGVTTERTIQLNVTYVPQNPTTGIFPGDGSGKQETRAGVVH
As to the kind of experiment: ELISA on coated human CD33-his. The method, then: In order to assay the binding activity of VHH-Fc to human CD33 protein, a human CD33-his protein (purchased from ACROBiosystems, Cat. No. CD3-H5226) was diluted with PBS to make a final concentration of 2 μg/mL, and then added into a 96-well ELISA plate at 100 μL/well. The plate was sealed with a plastic film and incubated at 4° C. overnight, washed twice with PBS the next day, and a blocking solution [PBS+2% (w/w) BSA] was added for blocking at room temperature for 2 h. The blocking solution was discarded, and VHH-Fc antibody or negative control antibody serially diluted from 100 nM was added at 50 μL/well. After incubation at 37° C. for 2 h, the plate was washed 3 times with PBS. A secondary antibody labeled with HRP (horseradish peroxidase) (purchased from Sigma, Cat. No. A0170) was added. After incubation for 1 h at 37° C., the plate was washed 5 times with PBS. A TMB substrate was added at 50 μL/well. After incubation at room temperature for 10 min, a stop solution (1.0 N HCl) was added at 50 μL/well. The OD450 nm values were read on an ELISA plate reader (Multimode Plate Reader, EnSight, purchased from Perkin Elmer). The assay results for the binding of the VHH-Fc to hCD33-his by ELISA are shown in FIGS. 7A and 7B and Tables 11 and 12. […] The IgG control was hIgG1, and the data in the table are OD450 nm values. […]
(In general: An ELISA detects its analyte on a solid surface through an enzyme-linked reagent.)

Another assay has as its target T4, human CD33-his protein (human, UniProt P20138 18-259).
T4 construct: range 18-259; bought protein; also called hCD33-his; recombinant human CD33-his; not shown: His tag
The experiment in a line: competition ELISA, coated human CD33-his, vs Biotin-C33B904 at EC80; antibody 0.98 nM. As to the method:
The plate was sealed with a plastic film and incubated at 4° C. overnight, washed twice with PBS the next day, and a blocking solution [PBS+2% (w/w) BSA] was added for blocking at room temperature for 2 h. The blocking solution was discarded, and VHH-Fc antibody or negative control antibody serially diluted from 100 nM was added at 50 μL/well. After incubation at 37° C. for 2 h, the plate was washed 3 times with PBS. A secondary antibody labeled with HRP (horseradish peroxidase) (purchased from Sigma, Cat. No. A0170) was added. After incubation for 1 h at 37° C., the plate was washed 5 times with PBS. A TMB substrate was added at 50 μL/well. After incubation at room temperature for 10 min, a stop solution (1.0 N HCl) was added at 50 μL/well. The OD450 nm values were read on an ELISA plate reader (Multimode Plate Reader, EnSight, purchased from Perkin Elmer). The assay results for the binding of the VHH-Fc to hCD33-his by ELISA are shown in FIGS. 7A and 7B and Tables 11 and 12. […] The IgG control was hIgG1, and the data in the table are OD450 nm values.
ELISA plates were coated with 2 μg/mL human CD33-his protein according to the method in Example 5.1; the Biotin-C331B904 antibody was subjected to a gradient dilution from 15 μg/mL, and EC80 values (0.18 μg/mL) were calculated. […] OD_{450 nm} values were read using an ELISA plate reader (Insight, purchased from PerkinElmer). […]

T2 sequence (P20138 18-364): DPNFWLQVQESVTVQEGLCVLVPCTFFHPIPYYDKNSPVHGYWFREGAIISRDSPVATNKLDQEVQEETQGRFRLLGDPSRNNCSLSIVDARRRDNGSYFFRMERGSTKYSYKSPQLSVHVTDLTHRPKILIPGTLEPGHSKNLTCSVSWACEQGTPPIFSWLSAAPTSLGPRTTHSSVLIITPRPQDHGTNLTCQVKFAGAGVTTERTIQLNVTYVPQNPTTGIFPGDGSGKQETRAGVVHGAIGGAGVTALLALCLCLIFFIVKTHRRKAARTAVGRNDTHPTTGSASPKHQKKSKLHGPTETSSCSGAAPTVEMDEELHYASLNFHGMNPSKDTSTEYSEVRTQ
T4 sequence (P20138 18-259 limits assumed): as the sequence (P20138 18-259 limits assumed) above
T1 sequence (P20138 other isoform, or with tags, fused parts or gaps limits assumed): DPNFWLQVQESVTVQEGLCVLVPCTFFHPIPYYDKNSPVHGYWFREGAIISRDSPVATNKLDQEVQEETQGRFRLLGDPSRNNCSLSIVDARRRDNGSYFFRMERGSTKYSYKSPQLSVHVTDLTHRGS

B1: C33B904 hIgG1 (antibody, V domains shown)
VH: EVQLVESGGGLVQPGRSLRLSCAASGFTFDDYAMHWVRQAPGKGLEWVSGIGWSGGSIVYADSVKGRFTISRDNAKNSLYLQMNSLRAEDTALYYCAKDSPYGDFFDYWGQGTLVTVSS
VL: DIVMTQSPDSLAVSLGERATINCKSSQTVFYSSNNKNYLAWYQQKPGQPPKLLISWASTRKSGVPDRFSGSGSGTDFTLTVSSLQAEDVAVYYCQHYYSTPYTFGQGTKLEIKR
notes: intact human IgG1; variable regions from US20190382481A1; also called C33B3904; C331B904
For orientation: EC50 means the concentration that produces a half-maximal response. One may read the EC50 (read off the curve) as the concentration needed to bring the measured effect to its halfway point. Read a high EC50 (read off the curve) as lower potency in that assay. Consider B1, for which, in the assay with human CD33-V-his, the binding result is “no binding (tested: 100 nM)”. For the same molecule, in assay [1], the EC50 came out at 4.53 nM and the “Max MFI” value came out at 12400 MFI. Also, in assay [2], the “EC50 (read off the curve)” value is approximately 0.3 nM.

B2: C33B904 (antibody, human IgG1, kappa, V domains shown)
VH: EVQLVESGGGLVQPGRSLRLSCAASGFTFDDYAMHWVRQAPGKGLEWVSGIGWSGGSIVYADSVKGRFTISRDNAKNSLYLQMNSLRAEDTALYYCAKDSPYGDFFDYWGQGTLVTVSS
VL: DIVMTQSPDSLAVSLGERATINCKSSQTVFYSSNNKNYLAWYQQKPGQPPKLLISWASTRKSGVPDRFSGSGSGTDFTLTVSSLQAEDVAVYYCQHYYSTPYTFGQGTKLEIKR
notes: control antibody, intact human IgG1 form; variable regions from US20190382481A1; also called C33B904 hIgG1; C331B904
B2: the “OD450 (Biotin-C33B904 signal)” value with human CD33-his protein was found to be 2.31.
